The results in this text go back to the supplement of paper PMC9112550, “Optimization of the antimicrobial peptide Bac7 by deep mutational scanning” (BMC Biology, 2022).

The data set has as its system Escherichia coli TOP10. In words: shrunken log2 fold change of peptide-encoding DNA abundance (4.5 h post-induction vs induction); higher = less antimicrobial activity (less host growth inhibition). The settings on record: time post-induction: 4.5 h; library: site-saturation at positions 5, 18, 19, 20.
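Further: peptides expressed intracellularly from a pBAD plasmid library in pooled LB shake-flask culture, induced with 0.3% L-arabinose, DNA abundance read by NGS, three biological replicates, DESeq2 with apeglm shrinkage.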

As to RRIRRRPPRLPRPRPRPRPLPRP, the “shrunken log2 fold change” value is 0.559.
To RRIRDRPPRLPRPRPRPKDWPRP belongs 0.601; to RRIRIRPPRLPRPRPRPKNLPRP, -0.0922; to RRIRNRPPRLPRPRPRPNAVPRP, 0.266.
To RRIRSRPPRLPRPRPRPDAEPRP belongs 0.984; to RRIRARPPRLPRPRPRPAFFPRP, 0.479.
As to RRIRQRPPRLPRPRPRPCRRPRP, the “shrunken log2 fold change” value is 0.00897.
To RRIRFRPPRLPRPRPRPIELPRP belongs -0.537.
The result for RRIRDRPPRLPRPRPRPFQQPRP reads -0.0599; that for RRIRARPPRLPRPRPRPQHRPRP, -0.281.
The result for RRIRLRPPRLPRPRPRPQEFPRP reads 0.00998.
Consider RRIRHRPPRLPRPRPRPPRTPRP, for which the “shrunken log2 fold change” value was 1.03.
To RRIRERPPRLPRPRPRPIIMPRP belongs -0.119; to RRIRMRPPRLPRPRPRPSKNPRP, 0.277; to RRIRHRPPRLPRPRPRPMFRPRP, -0.422.
To RRIRYRPPRLPRPRPRPPEHPRP belongs -0.0551.
Regarding RRIRWRPPRLPRPRPRPMETPRP, the “shrunken log2 fold change” value was 1.73.
RRIRRRPPRLPRPRPRPKPSPRP: the “shrunken log2 fold change” value turned out to be 0.294.
For RRIRPRPPRLPRPRPRPHDHPRP, the “shrunken log2 fold change” value stood at 0.0287.
Regarding RRIRKRPPRLPRPRPRPIAHPRP, the “shrunken log2 fold change” value was found to be 0.143.
The result for RRIRNRPPRLPRPRPRPNDTPRP reads -0.236; that for RRIRARPPRLPRPRPRPDHAPRP, -0.0131; that for RRIRTRPPRLPRPRPRPYGIPRP, -0.0927.
To RRIRYRPPRLPRPRPRPGNTPRP belongs -1.18; to RRIRDRPPRLPRPRPRPCRMPRP, 0.0112.
The result for RRIRKRPPRLPRPRPRPKIRPRP reads 0.246; that for RRIRPRPPRLPRPRPRPTINPRP, -0.51; that for RRIRNRPPRLPRPRPRPTKKPRP, 0.0702.
Regarding RRIRERPPRLPRPRPRPWTMPRP, the “shrunken log2 fold change” value worked out at 0.0606.
In the case of RRIRSRPPRLPRPRPRPFYRPRP, the “shrunken log2 fold change” value was -0.271.
The result for RRIRCRPPRLPRPRPRPHHWPRP reads -0.0852; that for RRIRCRPPRLPRPRPRPLQKPRP, -0.0859; that for RRIRGRPPRLPRPRPRPCRTPRP, 0.225.
To RRIRLRPPRLPRPRPRPKFSPRP belongs -0.0419; to RRIRKRPPRLPRPRPRPPHNPRP, 0.465; to RRIRPRPPRLPRPRPRPNYQPRP, -0.293.
As for RRIRPRPPRLPRPRPRPFYHPRP, the “shrunken log2 fold change” value is -0.547.
For RRIRVRPPRLPRPRPRPYSSPRP, the “shrunken log2 fold change” value was -0.644.
The result for RRIRQRPPRLPRPRPRPRIEPRP reads 0.111; that for RRIRCRPPRLPRPRPRPRLYPRP, -0.307.
Turning to RRIRSRPPRLPRPRPRPHIQPRP, the “shrunken log2 fold change” value was -0.699.
To RRIRGRPPRLPRPRPRPNWQPRP belongs 0.0611.
For the sequence RRIRCRPPRLPRPRPRPNCNPRP, the “shrunken log2 fold change” value is -0.375.
In the case of RRIRFRPPRLPRPRPRPIYSPRP, the “shrunken log2 fold change” value is -0.751.
For the sequence RRIRRRPPRLPRPRPRPWEVPRP, the “shrunken log2 fold change” value was found to be 0.125.
The result for RRIRMRPPRLPRPRPRPEHQPRP reads 0.0185; that for RRIRCRPPRLPRPRPRPFPNPRP, -0.0279; that for RRIRFRPPRLPRPRPRPLKPPRP, -0.178.
Take RRIRKRPPRLPRPRPRPCPYPRP: the “shrunken log2 fold change” value turned out to be 0.151.
On to RRIRDRPPRLPRPRPRPLRKPRP, for which the “shrunken log2 fold change” value worked out at 1.36.
The result for RRIRGRPPRLPRPRPRPGTFPRP reads 0.222; that for RRIRDRPPRLPRPRPRPWMTPRP, -0.29; that for RRIRDRPPRLPRPRPRPRRHPRP, 0.172.
Consider RRIRERPPRLPRPRPRPAGCPRP, for which the “shrunken log2 fold change” value is -0.0935.
The result for RRIRRRPPRLPRPRPRPFQSPRP reads 0.0629.
For RRIRTRPPRLPRPRPRPLWRPRP, the “shrunken log2 fold change” value was found to be 0.00366.
The result for RRIRFRPPRLPRPRPRPWVEPRP reads -0.0273.
To RRIRSRPPRLPRPRPRPTMEPRP belongs 0.317.
To RRIRIRPPRLPRPRPRPKDPPRP belongs -0.111; to RRIRNRPPRLPRPRPRPTWKPRP, 0.0378.
For RRIRRRPPRLPRPRPRPGTHPRP, the “shrunken log2 fold change” value stood at 0.243.
The result for RRIRCRPPRLPRPRPRPPNFPRP reads -0.0525.
To RRIRCRPPRLPRPRPRPAWKPRP belongs 0.0545; to RRIRNRPPRLPRPRPRPVRNPRP, 0.178.
As to RRIRIRPPRLPRPRPRPWQDPRP, the “shrunken log2 fold change” value is -0.0109.
To RRIRHRPPRLPRPRPRPHGCPRP belongs -0.0438; to RRIRHRPPRLPRPRPRPIKQPRP, -0.0565.
To RRIRYRPPRLPRPRPRPVSDPRP belongs -0.379.
The result for RRIRTRPPRLPRPRPRPASPPRP reads 0.209; that for RRIRERPPRLPRPRPRPPQPPRP, 0.307; that for RRIRARPPRLPRPRPRPLIEPRP, 0.388.
As to RRIRARPPRLPRPRPRPGFGPRP, the “shrunken log2 fold change” value was determined as 0.667.
Consider RRIRVRPPRLPRPRPRPRIYPRP, for which the “shrunken log2 fold change” value is -0.15.
In the case of RRIRDRPPRLPRPRPRPCWMPRP, the “shrunken log2 fold change” value is -0.0868.
To RRIRPRPPRLPRPRPRPVIFPRP belongs -0.11; to RRIRWRPPRLPRPRPRPVTCPRP, -0.00133.
As to RRIRRRPPRLPRPRPRPREAPRP, the “shrunken log2 fold change” value came to 0.254.
For RRIRCRPPRLPRPRPRPYHIPRP, the “shrunken log2 fold change” value was -0.27.
The result for RRIRVRPPRLPRPRPRPIDAPRP reads -0.206; that for RRIRYRPPRLPRPRPRPCYFPRP, -1.04; that for RRIRQRPPRLPRPRPRPWRMPRP, -0.421.
The result for RRIRDRPPRLPRPRPRPWSHPRP reads 0.0226; that for RRIRKRPPRLPRPRPRPKVEPRP, 0.0183.
Regarding RRIRNRPPRLPRPRPRPRQYPRP, the “shrunken log2 fold change” value stood at 0.0612.
To RRIRCRPPRLPRPRPRPIKRPRP belongs -0.628; to RRIRSRPPRLPRPRPRPQKAPRP, 0.091; to RRIRQRPPRLPRPRPRPACRPRP, -0.0513.
As to RRIRLRPPRLPRPRPRPQCHPRP, the “shrunken log2 fold change” value is 0.0598.
For RRIRPRPPRLPRPRPRPELLPRP, the “shrunken log2 fold change” value stood at 0.14.
As to RRIRPRPPRLPRPRPRPPHIPRP, the “shrunken log2 fold change” value is 0.806.
RRIRQRPPRLPRPRPRPCCFPRP: the “shrunken log2 fold change” value turned out to be 0.0639.
To RRIRIRPPRLPRPRPRPGAEPRP belongs 0.0273; to RRIRYRPPRLPRPRPRPPQWPRP, 0.204; to RRIRYRPPRLPRPRPRPPEGPRP, -0.455.
For the sequence RRIRGRPPRLPRPRPRPHRVPRP, the “shrunken log2 fold change” value stood at 0.0916.
The result for RRIRGRPPRLPRPRPRPPPGPRP reads 1.36.
As to RRIRSRPPRLPRPRPRPCGMPRP, the “shrunken log2 fold change” value is -0.0447.
To RRIRHRPPRLPRPRPRPSMEPRP belongs -0.424.
